{"source": "paper doi:10.1101/2020.06.22.166033", "target": "biotinylated SARS-CoV-2 S2P probe (SARS-CoV-2-S2P-AVI) (SARS-CoV-2 | T4 phage) (UniProt P0DTC2)", "assay": "SPR", "note": "pKd: −log10 of the molar value.", "data": [{"substance": "CR3022 Fab", "values": [{"measurement": "pKd", "value": 7.04}]}]}
